Source: the RNAGym collection of RNA variant scans (doi:10.7554/elife.80360)

B1: CPEB3 Ribozyme (parent)
chain: GGGGGCCACAGCAGAAGCGUUCACGUCGCGGCCCCUGUCAGAUUCUGGUGAAUCUGCGAAUUCUGCUGU

Variants of: B1
Experiment: self-cleavage, relative activity (ratio to wild type); higher = more cleavage; co-transcriptional

| Variant | self-cleavage |
| --- | --- |
| G48C A52G | 1.04 |
| G47U U62G | 0.903 |
| G47U U62C | 0.912 |
| U49C C54U | 0.965 |
| U49C C54G | 0.789 |
| G48A A52U | 0.996 |
| G48A A52C | 0.975 |
| G48A A52G | 0.989 |
| G48A U62G | 0.868 |
| G48A U62C | 0.952 |
| U49C A60C | 0.354 |
| U49C A60U | 0.535 |
| G47C G65A | 0.963 |
| G47C G65U | 0.908 |
| G47C G65C | 0.726 |
| G48U U67C | 1 |
| G48U U67G | 1.05 |
| G48U U67A | 1.01 |
| G47A U67G | 1.06 |
| G47A U67C | 0.976 |
| G48U A51C | 0.978 |
| G48U A51U | 1 |
| G48U A51G | 0.959 |
| G47U U67C | 1 |

| Variant | self-cleavage |
| --- | --- |
| G48A C54A | 0.998 |
| G48A C54U | 1.01 |
| G48A C54G | 1.02 |
| G48U A60G | 0.979 |
| G48U A60C | 0.362 |
| G47U C66A | 0.933 |
| G47U C66G | 0.914 |
| G47U C66U | 1.02 |
| U49C U62C | 0.827 |
| U49C U62G | 0.932 |
| G47U C57U | 0.378 |
| G47U C57G | 0.311 |
| G47U C57A | 0.396 |
| G48C U62G | 0.913 |
| U49C A51U | 0.887 |
| U49C A51C | 0.981 |
| G48C U64C | 0.938 |
| G48A C63G | 0.898 |
| G48A C63A | 0.932 |
| G48A C63U | 0.959 |
| U49C G58U | 0.988 |
| U49C G58A | 0.911 |
| U49C C57G | 0.265 |
| U49C C57U | 0.345 |

| Variant | self-cleavage |
| --- | --- |
| U49C C57A | 0.216 |
| G47C G58A | 0.939 |
| G47C G58U | 0.997 |
| G47C G58C | 0.977 |
| U49C G68A | 1.01 |
| U49C G68C | 0.998 |
| U49C G68U | 1.03 |
| G48C U69C | 1.06 |
| G47U U64G | 0.913 |
| G47U U69C | 1.06 |
| G47U U69A | 1.02 |
| G47U U69G | 1.05 |
| U49C G50U | 1.03 |
| U49C G50C | 1.03 |
| U49G A60U | 0.432 |
| U49G A60G | 0.948 |
| G47U A51U | 1.01 |
| G47U A51C | 0.997 |
| U49A G56A | 1 |
| U49A G56U | 0.991 |
| G47C C63U | 1.01 |
| G48U G68U | 1.04 |
| G48U G68C | 1.05 |
| G48U G68A | 1.04 |

| Variant | self-cleavage |
| --- | --- |
| G47U U49G | 0.989 |
| G47U A59G | 1 |
| G47U A59C | 0.832 |
| G48U C57A | 0.316 |
| U49A U55A | 0.968 |
| U49C C63G | 0.832 |
| U49C C63A | 0.882 |
| G47C | 1 |
| G47U | 1 |
| G47C A59U | 0.863 |
| G47C A59G | 0.958 |
| G47C A59C | 0.837 |
| U49A A52G | 0.979 |
| G47C G50U | 0.998 |
| G47C G50C | 1.02 |
| G47A U61C | 0.887 |
| G47A U61G | 0.968 |
| G48A C57U | 0.374 |
| G48A C57G | 0.31 |
| U49A U62A | 0.99 |
| U49A U62C | 0.825 |
| G48C A51G | 0.995 |
| G48C G58C | 0.974 |
| G48C G58A | 0.917 |

| Variant | self-cleavage |
| --- | --- |
| U49A A59G | 0.995 |
| U49A A59C | 0.798 |
| U49A A59U | 0.85 |
| G47A U69G | 1.05 |
| G47A U69A | 1.03 |
| G47A U49G | 0.994 |
| G47U U61G | 0.906 |
| G47U U61A | 0.984 |
| G47C U49C | 0.981 |
| G47C U49G | 1 |
| G48U C66U | 0.978 |
| G48U C66A | 0.923 |
| G48U A52G | 0.983 |
| G48U A52C | 0.987 |
| G48U A52U | 0.969 |
| G47U C54A | 0.987 |
| G47U C54U | 1.05 |
| G47A G68A | 1.01 |
| G47A G68U | 1.01 |
| U49C U69A | 1.04 |
| U49C U69C | 1.04 |
| U49C U69G | 1.05 |
| G48A U64A | 0.946 |
| G48A U64C | 1 |

| Variant | self-cleavage |
| --- | --- |
| G48A U64G | 0.902 |
| U49C A52U | 0.93 |
| U49C A52C | 1.03 |
| U49C A52G | 0.972 |
| G47U G48C | 1.02 |
| U49C C66G | 0.879 |
| U49C C66U | 0.973 |
| U49A G68A | 1.02 |
| U49A G68C | 0.994 |
| G48A G56A | 0.992 |
| G48A G56C | 0.949 |
| G47U A52U | 0.973 |
| U49G A52C | 0.952 |
| U49G A52U | 0.986 |
| G48C | 0.999 |
| G48U | 0.999 |
| G48A | 1 |
| G48C G68A | 0.971 |
| G48A G68C | 0.98 |
| G47U U53C | 1.02 |
| G47U U53G | 0.991 |
| U49A U61G | 0.904 |
| U49A U61A | 0.979 |
| G48C G50A | 1.01 |

| Variant | self-cleavage |
| --- | --- |
| G48C G50U | 1.01 |
| G48C G50C | 0.944 |
| U49G A59C | 0.68 |
| G48U U61A | 0.924 |
| G48U U61C | 0.905 |
| G47C U55C | 0.943 |
| G48U U69G | 1.05 |
| G48U U69C | 1.04 |
| G48U U69A | 1.01 |
| G48A U67G | 1.06 |
| G48A U67C | 0.958 |
| G48A U67A | 1.01 |
| U49A U53G | 0.95 |
| U49A U53A | 0.984 |
| G48U A59U | 0.881 |
| G48U A59C | 0.739 |
| U49G C54U | 0.972 |
| G48A A60U | 0.516 |
| G48A A60C | 0.434 |
| G47A U64C | 0.974 |
| G47A U64A | 0.958 |
| G48U G58A | 0.963 |
| G48U G58U | 0.999 |
